Laboratory results as given in the supplement of paper PMC7125110.
± gives the standard error. Fewer inactive variants are shown than the library holds.

B1: glmS ribozyme (parent)
chain: AUAAAAGCGCCAGAACUACAGAAAUGUAGUUGACGAGGAGGAGGUUUAUCGAAUUUUCGGCGGAUGCCUCCAAA

Tests used:
Conditions in all cases: with glucosamine-6-phosphate
glucosamine-6-phosphate [1] = variants of: B1; assay: self-cleavage kobs at 40 uM GlcN6P; higher = faster cleavage; RNA array
Procedure, shortened: (§1)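 Barcoded ribozyme variants were transcribed in situ on sequenced MiSeq chips by E. coli RNA polymerase. At 37 °C, a hybridised Cy3 probe tracked them while glucosamine-6-phosphate (40 μM to 10 mM) in HEPES/KCl/Mg(OAc)2 buffer flowed in and tiles were imaged over ~14 h. Per-tile medians of signals normalised to baseline and to non-cleaving reference variants were fit to one- or two-exponential decays, giving kobs. kcat and KM came from weighted Michaelis–Menten fits across concentrations.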

glucosamine-6-phosphate [2] = variants of: B1; assay: self-cleavage kobs at 640 uM GlcN6P; higher = faster cleavage; RNA array
Procedure, shortened: as §1

glucosamine-6-phosphate [3] = variants of: B1; assay: self-cleavage kobs at 2500 uM GlcN6P; higher = faster cleavage; RNA array
Procedure, shortened: as §1

glucosamine-6-phosphate [4] = variants of: B1; assay: self-cleavage kobs at 10000 uM GlcN6P; higher = faster cleavage; RNA array
Procedure, shortened: as §1

glucosamine-6-phosphate [5] = variants of: B1; assay: self-cleavage kobs at 160 uM GlcN6P; higher = faster cleavage; RNA array
Procedure, shortened: as §1

Variant	self-cleavage kobs at 40 uM GlcN6P (glucosamine-6-phosphate [1]) [s⁻¹]	self-cleavage kobs at 640 uM GlcN6P (glucosamine-6-phosphate [2]) [s⁻¹]	self-cleavage kobs at 2500 uM GlcN6P (glucosamine-6-phosphate [3]) [s⁻¹]	self-cleavage kobs at 10000 uM GlcN6P (glucosamine-6-phosphate [4]) [s⁻¹]	self-cleavage kobs at 160 uM GlcN6P (glucosamine-6-phosphate [5]) [s⁻¹]
A33C A36G G40A	< 1e-05	< 1e-05	< 1e-05	< 1e-05	–
G35A U56G	< 1e-05	< 1e-05	–	< 1e-05	–
A42U U54C U55C	< 1e-05	–	5.79e-05 ± 1.6e-05	8.78e-05 ± 1.3e-05	–
A48G G63U	< 1e-05	–	< 1e-05	< 1e-05	–
A33G G66A	< 1e-05	–	–	< 1e-05	< 1e-05
G44U C58U C71U	< 1e-05	< 1e-05	< 1e-05	< 1e-05	–
A52C U56C	< 1e-05	–	< 1e-05	–	–
A53G U54G	0.00114 ± 0.00028	0.00511 ± 0.0011	0.00388 ± 0.0012	0.081 ± 0.028	0.00165 ± 0.00047
G40U U56G G62C C67G	< 1e-05	–	–	–	–
C10U C11G U65G	< 1e-05	–	–	–	–
A53C C61U	< 1e-05	< 1e-05	–	–	< 1e-05
U30C G37U	< 1e-05	–	–	–	–
A14U C16G G32U G44A A48C C61U U69G	< 1e-05	–	–	–	–
A14G C70G	9.61e-05 ± 1.2e-05	0.000614 ± 0.00013	0.0009 ± 0.00022	–	0.000203 ± 1.9e-05
G9C C58G C68A	< 1e-05	–	–	–	–
C10G A14C A36G U55A C71U	< 1e-05	–	–	–	–
G40U A64U	< 1e-05	–	–	–	< 1e-05
C16U U54A	0.000888 ± 0.00012	0.00323 ± 0.00079	0.00607 ± 0.0014	0.0405 ± 0.0081	0.00185 ± 0.0004
A15U A39C G41C	< 1e-05	< 1e-05	< 1e-05	–	–
C50U A52C	< 1e-05	–	< 1e-05	< 1e-05	< 1e-05
U30A G37C U65C	< 1e-05	–	< 1e-05	–	–
C10U G29U U56G	< 1e-05	–	–	< 1e-05	–
G7U G38U U46G	< 1e-05	–	–	–	–
A6G C10A G29U	< 1e-05	–	–	–	–

Variant	self-cleavage kobs at 40 uM GlcN6P (glucosamine-6-phosphate [1]) [s⁻¹]	self-cleavage kobs at 640 uM GlcN6P (glucosamine-6-phosphate [2]) [s⁻¹]	self-cleavage kobs at 2500 uM GlcN6P (glucosamine-6-phosphate [3]) [s⁻¹]	self-cleavage kobs at 10000 uM GlcN6P (glucosamine-6-phosphate [4]) [s⁻¹]	self-cleavage kobs at 160 uM GlcN6P (glucosamine-6-phosphate [5]) [s⁻¹]
G13C C16U C67A	< 1e-05	–	–	3.41e-05 ± 1.2e-05	–
C8A C11G A12G C68U	< 1e-05	–	–	–	–
G44C C58U	< 1e-05	< 1e-05	< 1e-05	< 1e-05	< 1e-05
A42C A53U	< 1e-05	< 1e-05	–	–	< 1e-05
A6U G7C C8G G38U	< 1e-05	< 1e-05	–	–	–
U31C U69C C70A	< 1e-05	–	–	–	–
G37U G40U U45C	< 1e-05	–	–	< 1e-05	–
A36C G43U	< 1e-05	< 1e-05	< 1e-05	< 1e-05	–
C34G A42G	< 1e-05	< 1e-05	< 1e-05	< 1e-05	–
C34U G66U	< 1e-05	–	–	< 1e-05	< 1e-05
G7C A52U	< 1e-05	< 1e-05	< 1e-05	< 1e-05	< 1e-05
G38U G41C G43A	< 1e-05	–	–	–	–
A6U C8G G38C G43A	< 1e-05	–	–	< 1e-05	–
G44C U45C	< 1e-05	–	–	–	< 1e-05
C8A G44C C70A	< 1e-05	–	–	< 1e-05	–
A6G C50G A53G C58U	0.000224 ± 9.8e-05	–	–	–	–
G7U C10A A15U	< 1e-05	< 1e-05	< 1e-05	–	–
U30A G60U C71U	< 1e-05	–	–	< 1e-05	–
G32A A39C G44U	< 1e-05	–	–	< 1e-05	–
G7C C70A	< 1e-05	< 1e-05	< 1e-05	< 1e-05	< 1e-05
G51C A64U	< 1e-05	< 1e-05	–	< 1e-05	< 1e-05
C10U G44A	< 1e-05	< 1e-05	–	< 1e-05	< 1e-05
C8A G29U C50U G51U C68G	6.11e-05 ± 2.7e-05	–	–	–	–
A6C C10G	< 1e-05	< 1e-05	–	< 1e-05	< 1e-05

Variant	self-cleavage kobs at 40 uM GlcN6P (glucosamine-6-phosphate [1]) [s⁻¹]	self-cleavage kobs at 640 uM GlcN6P (glucosamine-6-phosphate [2]) [s⁻¹]	self-cleavage kobs at 2500 uM GlcN6P (glucosamine-6-phosphate [3]) [s⁻¹]	self-cleavage kobs at 10000 uM GlcN6P (glucosamine-6-phosphate [4]) [s⁻¹]	self-cleavage kobs at 160 uM GlcN6P (glucosamine-6-phosphate [5]) [s⁻¹]
G38U A42U U49A G60U	< 1e-05	–	–	< 1e-05	–
G32U G44A	< 1e-05	–	–	–	–
U30G A53G	0.000307 ± 5.3e-05	0.00172 ± 0.0004	0.00534 ± 0.00076	0.0151 ± 0.0037	0.00064 ± 0.00013
G7A G13U U69G C71A	0.00031 ± 7.3e-05	–	–	0.000516 ± 0.00016	–
G32C U57A	< 1e-05	–	–	–	–
A53G G66A C67A	0.000154 ± 2.9e-05	–	0.0011 ± 0.0002	0.0038 ± 0.00083	–
A42C G60U	< 1e-05	–	< 1e-05	< 1e-05	–
A33U U46A	< 1e-05	< 1e-05	–	–	< 1e-05
A14G C71A	0.000515 ± 6.3e-05	0.00337 ± 0.00085	0.0123 ± 0.0037	–	0.000688 ± 0.00011
A6U C8U	< 1e-05	< 1e-05	< 1e-05	< 1e-05	< 1e-05
A6C G7C C11G U55G	< 1e-05	–	–	< 1e-05	–
C8G G40A	< 1e-05	–	< 1e-05	< 1e-05	< 1e-05
C10G C11G C68U	< 1e-05	–	–	–	–
U31G G43U U54A	< 1e-05	–	–	–	–
G29C G37U G63U	< 1e-05	–	–	–	–
G37C A42U C70A	< 1e-05	–	–	–	–
U49C C50A	< 1e-05	–	–	–	< 1e-05
U56C U69C C70A	< 1e-05	< 1e-05	< 1e-05	< 1e-05	< 1e-05
C10U U45G	< 1e-05	< 1e-05	–	< 1e-05	< 1e-05
A12U G32A A33U	< 1e-05	< 1e-05	–	–	–
G7A A52U G63C	< 1e-05	< 1e-05	< 1e-05	–	< 1e-05
C8G U31A G41C	< 1e-05	–	–	–	–
C10U C11A	< 1e-05	–	–	–	< 1e-05
G37U G59U	< 1e-05	< 1e-05	–	–	–

Variant	self-cleavage kobs at 40 uM GlcN6P (glucosamine-6-phosphate [1]) [s⁻¹]	self-cleavage kobs at 640 uM GlcN6P (glucosamine-6-phosphate [2]) [s⁻¹]	self-cleavage kobs at 2500 uM GlcN6P (glucosamine-6-phosphate [3]) [s⁻¹]	self-cleavage kobs at 10000 uM GlcN6P (glucosamine-6-phosphate [4]) [s⁻¹]	self-cleavage kobs at 160 uM GlcN6P (glucosamine-6-phosphate [5]) [s⁻¹]
C8U A42C	< 1e-05	< 1e-05	< 1e-05	< 1e-05	< 1e-05
U55A C67U	0.000401 ± 8.2e-05	0.00589 ± 0.0022	–	0.0154 ± 0.0038	0.000667 ± 0.00022
A42C U65C	< 1e-05	< 1e-05	< 1e-05	< 1e-05	< 1e-05
A36C G41U U45G C67G	< 1e-05	–	–	< 1e-05	–
U30C U45A U47C C50U G60U C68U	< 1e-05	–	–	–	–
G32C U47G C67G	0.000392 ± 0.00015	–	–	6.01e-05 ± 2.5e-05	–
G43A C58A	< 1e-05	< 1e-05	< 1e-05	< 1e-05	< 1e-05
A12U U47C G60A	< 1e-05	–	–	< 1e-05	–
G41C A64C	< 1e-05	< 1e-05	< 1e-05	–	< 1e-05
C10A U30G	< 1e-05	–	–	–	< 1e-05
U31C G44A C71U	< 1e-05	< 1e-05	–	–	< 1e-05
A33U G60A	< 1e-05	< 1e-05	–	–	< 1e-05
C34U U65A	< 1e-05	< 1e-05	–	< 1e-05	< 1e-05
G41C G63C	< 1e-05	< 1e-05	< 1e-05	< 1e-05	–
A42U G51C	< 1e-05	< 1e-05	–	–	< 1e-05
C10U A15G C67G	< 1e-05	6.46e-05 ± 2.3e-05	–	–	–
A6U U46G C58A	< 1e-05	–	–	–	–
A14G G44U U49C	< 1e-05	–	–	–	–
A6G G35U A52C C70G	< 1e-05	–	–	–	–
G26U C50G A52C U56G G66C C67U C71U	0.000243 ± 7.9e-05	0.000548 ± 0.00021	–	0.000101 ± 2.7e-05	–
C34U G60U	< 1e-05	< 1e-05	< 1e-05	< 1e-05	< 1e-05
G13U G41U U46G	< 1e-05	–	–	–	–
G29U G35U C70U	< 1e-05	–	< 1e-05	–	–
C8A G60U	< 1e-05	< 1e-05	< 1e-05	–	< 1e-05
